Reference: patent US20220409725A1

Biological target: HER2 (UniProt P04626)
Assay: SPR

Kd: 0.75 nM
Substance: 4D5 Fab modified to contain Q39E in VH, Q38K in VL, S183K in the CH1, and V133E in the CL
